From patent publication US20040139485A1 (US Dept. of Health and Human Services, published 2004)

B1: BOG-MBP chimeric protein (complete rBOG fused to the carboxy-terminal of maltose binding protein, pMAL-P2-BOG) (other, not shown: large carriers)
chain: MVSPTKAVIVPGNGGGDVATHGWYGWVRKGLEQIPGFQCLAKNMPDPITARESIWLPFMETELHCDEKTIIIGHSSGAIAAMRYAETHQVYALILVSAYTSDLGDENERASGYFSRPWQWEKIKANCPHIIQFGSTDDPFLPWKEQQEVADSWTPNCTNSLTVVTFRTQSSMN
notes: Any vector-encoded linker between MBP and BOG is not described; also called fusion protein BOG-MBP; chimeric BOG-MBP
B2: pRb (retinoblastoma gene product), endogenous in rat liver epithelial cell extracts (other)
chain: PPKAPRRTAAAEPPPPPPPPPEDDPAQDSDPEELPLIRLEFEKIEEPEFIALCQKLKVPDHVRERAWLTWEKVSSVDGILEGYIQKKKELWGICIFIAAVDLDEMPFTFTELQKSIETSVYKFFDLLKEIDTSTKVDNAVSRLLKKYNVLCALYSKLERTCGLIYLTQPSSGLSTEINSMLVLKVSWITFLLAKGEVVQMEDDLVISFQLMLCVLDYFIKLSPPALLREPYKTAATPINGSPRTPRRGQNRSARIAKQLESDTRTIEVLCKEHECNVDEVKNVYFKNFIPFISSLGIVSSNGLPELESLSKRYEEVYLKSKDLDARLFLDHDKTLQTDTIDSFETERTPRKSNPDEEANMVTPHTPVRTVMNTIQQLMVILNSASDQPSENLISYFSNCTVNPKENILKRVKDVGHIFKEKFASAVGQGCIDIGAQRYKLGVRLYYRVMESMLKSEEERLSIQNFSKLLNDNIFHMSLLACALEVVMATYSRSMLQNLDSGTDLSFPWILNVLNLKAFDFYKVIESFIKVEANLTREMIKHLERCEHRIMESLAWLSDSPLFDLIKQSKDGEGPDHLESACSLSLPLQSNHTAADMYLSPIRSPKKRTSTTRVNSAANTETQAASAFHTQKPLKSTSLSLFYKKVYRLAYLRLNTLCARLLSDHPELEHIIWTLFQHTLENEYELMKDRHLDQIMMCSMYGICKVKNIDLKFKIIVTAYKDLPHAAQETFKRVLIREEEFDSIIVFYNSVFMQRLKTNILQYASTRPPTLSPIPHIPRSPYKFSSSPLRIPGGNIYISPLKSPYKISEGLPTPTKMTPRSRILVSIGESFGTSEKFQKINQMVCNSDRVLKRSAEGGNPPKPLKKLRFDIEGSDEADGSKHLPAESKFQQKLAEMTSTRTRMQKQKLNDSMEISNKEEK

What was measured:
[1] = target: B2; experiment: precipitation of pRb from whole cell lysates by amylose-purified BOG-MBP
[2] = target: maltose binding protein without BOG (UniProt P0AEX9 27-392 = MBP); experiment: precipitation from whole cell lysates with amylose-purified protein

Binder	binding result [1]	binding result [2]
B1	binds	–
B2	–	no binding
